These results are taken from patent US20070286859A1.

This experiment has as its target FcγRIIIa on human PBMCs expressing heterozygous V158/F158 FcγRIIIa (human) (UniProt P08637). In words: cell-based or functional assay.

FcγRIIIa on human PBMCs expressing heterozygous V158/F158 FcγRIIIa (human), sequence (P08637 17-254): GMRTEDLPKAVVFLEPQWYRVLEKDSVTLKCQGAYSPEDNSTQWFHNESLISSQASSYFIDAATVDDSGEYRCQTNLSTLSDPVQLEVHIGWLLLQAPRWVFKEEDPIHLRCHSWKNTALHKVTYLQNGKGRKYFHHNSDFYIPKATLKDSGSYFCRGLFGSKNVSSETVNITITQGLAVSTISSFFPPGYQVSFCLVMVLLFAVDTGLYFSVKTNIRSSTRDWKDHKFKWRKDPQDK

Regarding S239D/I332E alemtuzumab (antibody), the ADCC EC50 is 3 ng/mL, the ADCC Fold WT was determined as 3.3 fold and the ADCC log(EC50) is 0.49.

Take V264I/I332E alemtuzumab (antibody): the ADCC EC50 worked out at 4 ng/mL and the ADCC log(EC50) amounted to 0.6.
